# Assay results published in patent US20120172295A1 (INDIANA UNIVERSITY RESEARCH AND TECHNOLOGY, published 2012).
# Read-outs that look alike come from different tables or passages of the source. Positions of bridges follow the written chain, without caps; N, C: chain ends. Non-standard residues stand in square brackets, D forms with d. Groups on a side chain read outwards from the residue. Primed or numbered codes have the meaning given here. No end group written: not given here. *: point of attachment. PEG 40 kDa″ = 40 kDa polyethylene glycol; Stearoyl = CCCCCCCCCCCCCCCCCC(=O)*; Palmitoyl = CCCCCCCCCCCCCCCC(=O)*; Myristoyl = CCCCCCCCCCCCCC(=O)*; Dab = NCC[C@H](N)C(=O)O; Aib = CC(C)(N)C(=O)O
# B1: E16 GLP(17-29)-NH2 E24, K28 Lactam (peptide)
# peptide: HSQGTFTSDYSKYLDEQAAKEFIEWLVKG-NH2
# modifications: lactam 24-28; N-terminus assumed
# SMILES: CC[C@H](C)[C@H](NC(=O)[C@H](Cc1ccccc1)NC(=O)[C@H](CCC(=O)O)NC(=O)[C@H](CCCCN)NC(=O)[C@H](C)NC(=O)[C@H](C)NC(=O)[C@H](CCC(N)=O)NC(=O)[C@H](CCC(=O)O)NC(=O)[C@H](CC(=O)O)NC(=O)[C@H](CC(C)C)NC(=O)[C@H](Cc1ccc(O)cc1)NC(=O)[C@H](CCCCN)NC(=O)[C@H](CO)NC(=O)[C@H](Cc1ccc(O)cc1)NC(=O)[C@H](CC(=O)O)NC(=O)[C@H](CO)NC(=O)[C@@H](NC(=O)[C@H](Cc1ccccc1)NC(=O)[C@@H](NC(=O)CNC(=O)[C@H](CCC(N)=O)NC(=O)[C@H](CO)NC(=O)[C@@H](N)Cc1c[nH]cn1)[C@@H](C)O)[C@@H](C)O)C(=O)N[C@H]1CCC(=O)NCCCC[C@@H](C(=O)NCC(N)=O)NC(=O)[C@H](C(C)C)NC(=O)[C@H](CC(C)C)NC(=O)[C@H](Cc2c[nH]c3ccccc23)NC1=O
# B2: Peptide 77** (SEQ ID NO: 616) (peptide)
# peptide: H[Aib]QGTFTSDK(Myristoyl)SKYLD[Aib]RRAQDFVCWLMNT-NH2
# modifications: N-terminus assumed
# SMILES: CCCCCCCCCCCCCC(=O)NCCCC[C@H](NC(=O)[C@H](CC(=O)O)NC(=O)[C@H](CO)NC(=O)[C@@H](NC(=O)[C@H](Cc1ccccc1)NC(=O)[C@@H](NC(=O)CNC(=O)[C@H](CCC(N)=O)NC(=O)C(C)(C)NC(=O)[C@@H](N)Cc1c[nH]cn1)[C@@H](C)O)[C@@H](C)O)C(=O)N[C@@H](CO)C(=O)N[C@@H](CCCCN)C(=O)N[C@@H](Cc1ccc(O)cc1)C(=O)N[C@@H](CC(C)C)C(=O)N[C@@H](CC(=O)O)C(=O)NC(C)(C)C(=O)N[C@@H](CCCNC(=N)N)C(=O)N[C@@H](CCCNC(=N)N)C(=O)N[C@@H](C)C(=O)N[C@@H](CCC(N)=O)C(=O)N[C@@H](CC(=O)O)C(=O)N[C@@H](Cc1ccccc1)C(=O)N[C@H](C(=O)N[C@@H](CS)C(=O)N[C@@H](Cc1c[nH]c2ccccc12)C(=O)N[C@@H](CC(C)C)C(=O)N[C@@H](CCSC)C(=O)N[C@@H](CC(N)=O)C(=O)N[C@H](C(N)=O)[C@@H](C)O)C(C)C
# B3: Peptide 81** (SEQ ID NO: 618) (peptide)
# peptide: H[Aib]QGTFTSDK([Ala-Ala-Myristoyl])SKYLD[Aib]RRAQDFVCWLMNT-NH2
# modifications: N-terminus assumed
# SMILES: CCCCCCCCCCCCCC(=O)N[C@@H](C)C(=O)N[C@@H](C)C(=O)NCCCC[C@H](NC(=O)[C@H](CC(=O)O)NC(=O)[C@H](CO)NC(=O)[C@@H](NC(=O)[C@H](Cc1ccccc1)NC(=O)[C@@H](NC(=O)CNC(=O)[C@H](CCC(N)=O)NC(=O)C(C)(C)NC(=O)[C@@H](N)Cc1c[nH]cn1)[C@@H](C)O)[C@@H](C)O)C(=O)N[C@@H](CO)C(=O)N[C@@H](CCCCN)C(=O)N[C@@H](Cc1ccc(O)cc1)C(=O)N[C@@H](CC(C)C)C(=O)N[C@@H](CC(=O)O)C(=O)NC(C)(C)C(=O)N[C@@H](CCCNC(=N)N)C(=O)N[C@@H](CCCNC(=N)N)C(=O)N[C@@H](C)C(=O)N[C@@H](CCC(N)=O)C(=O)N[C@@H](CC(=O)O)C(=O)N[C@@H](Cc1ccccc1)C(=O)N[C@H](C(=O)N[C@@H](CS)C(=O)N[C@@H](Cc1c[nH]c2ccccc12)C(=O)N[C@@H](CC(C)C)C(=O)N[C@@H](CCSC)C(=O)N[C@@H](CC(N)=O)C(=O)N[C@H](C(N)=O)[C@@H](C)O)C(C)C
# B4: HSDab(Ac)…ibRRAADFVAWLLDTGPSSGAPPPS amide (SEQ ID NO: 604) (peptide)
# peptide: HS[Dab](Ac)GTFTSDYSKYLD[Aib]RRAADFVAWLLDTGPSSGAPPPS-NH2
# modifications: N-terminus assumed
# SMILES: CC(=O)NCC[C@H](NC(=O)[C@H](CO)NC(=O)[C@@H](N)Cc1c[nH]cn1)C(=O)NCC(=O)N[C@H](C(=O)N[C@@H](Cc1ccccc1)C(=O)N[C@H](C(=O)N[C@@H](CO)C(=O)N[C@@H](CC(=O)O)C(=O)N[C@@H](Cc1ccc(O)cc1)C(=O)N[C@@H](CO)C(=O)N[C@@H](CCCCN)C(=O)N[C@@H](Cc1ccc(O)cc1)C(=O)N[C@@H](CC(C)C)C(=O)N[C@@H](CC(=O)O)C(=O)NC(C)(C)C(=O)N[C@@H](CCCNC(=N)N)C(=O)N[C@@H](CCCNC(=N)N)C(=O)N[C@@H](C)C(=O)N[C@@H](C)C(=O)N[C@@H](CC(=O)O)C(=O)N[C@@H](Cc1ccccc1)C(=O)N[C@H](C(=O)N[C@@H](C)C(=O)N[C@@H](Cc1c[nH]c2ccccc12)C(=O)N[C@@H](CC(C)C)C(=O)N[C@@H](CC(C)C)C(=O)N[C@@H](CC(=O)O)C(=O)N[C@H](C(=O)NCC(=O)N1CCC[C@H]1C(=O)N[C@@H](CO)C(=O)N[C@@H](CO)C(=O)NCC(=O)N[C@@H](C)C(=O)N1CCC[C@H]1C(=O)N1CCC[C@H]1C(=O)N1CCC[C@H]1C(=O)N[C@@H](CO)C(N)=O)[C@@H](C)O)C(C)C)[C@@H](C)O)[C@@H](C)O
# Tests used:
# Test in all cases: cell-based or functional assay
# GLP-1 receptor [1] = target: T1, GLP-1 receptor (UniProt P43220 24-463, limits assumed)
# glucagon receptor [2] = target: T2, glucagon receptor (UniProt P47871 26-477, limits assumed)
# GLP-1 receptor [3] = target: T1, GLP-1 receptor; remark: listed apart in the source
# glucagon receptor [4] = target: T2, glucagon receptor; remark: listed apart in the source
# glucagon receptor [5] = target: T2, glucagon receptor; remark: listed apart in the source
# GLP-1 receptor [6] = target: T1, GLP-1 receptor; remark: listed apart in the source
# glucagon receptor [7] = target: T2, glucagon receptor; remark: listed apart in the source
# glucagon receptor [8] = target: T2, glucagon receptor; remark: listed apart in the source
# GLP-1 receptor [9] = target: T1, GLP-1 receptor; remark: listed apart in the source
# GLP-1 receptor [10] = target: T1, GLP-1 receptor; remark: listed apart in the source
# glucagon receptor [11] = target: T2, glucagon receptor; remark: listed apart in the source
# GLP-1 receptor [12] = target: T1, GLP-1 receptor; remark: listed apart in the source
# GLP-1 receptor [13] = target: T1, GLP-1 receptor; remark: listed apart in the source
# glucagon receptor [14] = target: T2, glucagon receptor; remark: listed apart in the source
# T2 sequence (P47871 26-477 limits assumed): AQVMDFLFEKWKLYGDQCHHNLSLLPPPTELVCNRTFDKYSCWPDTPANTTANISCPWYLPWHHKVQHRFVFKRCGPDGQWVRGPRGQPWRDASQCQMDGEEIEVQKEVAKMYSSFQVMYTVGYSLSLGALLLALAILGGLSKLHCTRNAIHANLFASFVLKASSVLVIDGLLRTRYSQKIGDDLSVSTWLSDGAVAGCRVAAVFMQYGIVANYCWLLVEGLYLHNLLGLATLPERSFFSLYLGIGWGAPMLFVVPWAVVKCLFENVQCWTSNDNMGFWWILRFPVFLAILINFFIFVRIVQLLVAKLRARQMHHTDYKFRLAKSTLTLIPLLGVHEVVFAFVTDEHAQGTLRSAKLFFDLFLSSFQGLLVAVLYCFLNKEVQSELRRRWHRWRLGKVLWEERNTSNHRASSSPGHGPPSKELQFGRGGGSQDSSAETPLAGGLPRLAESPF
binder,measurement,setting,value
B1,cAMP induction EC50,GLP-1 receptor [1],7 pM
same,cAMP induction EC50,glucagon receptor [2],0.16 nM
HSQGTFTSDK([Glu-Palmitoyl])SKYLDERRAKDFVQWLMNT-NH2 [Peptide D (Example 22)],EC50,GLP-1 receptor [3],0.056 nM
same,EC50,glucagon receptor [4],0.062 nM
H[Aib]QGTFTSDYSKYLDEQAAKEFICWLMNT (lactam 16-20) [Peptide Y],% activity of native glucagon,glucagon receptor [5],99.5%
B2,EC50,GLP-1 receptor [6],0.063 nM
same,EC50,glucagon receptor [7],0.144 nM
H[Aib]QGTFTSDK(Stearoyl)SKYLDEQAAKEFIC(PEG 40 kDa″)WLMNT-NH2 [C18 acylated Glucagon analog peptide (SEQ ID NO: 537)],EC50,glucagon receptor [8],8.55 nM
same,EC50,GLP-1 receptor [9],0.0118 nM
HSQGTFTSDK(Stearoyl)SKYLDERRAKDFVQWLMNT-NH2 [E16 K20-glucagon-NH2 with K10-C18],EC50,GLP-1 receptor [3],0.032 nM
same,EC50,GLP-1 receptor [10],0.03 nM
H[Aib]QGTFTSDYSKYLDEQAAKEFIC([maleimide-PEG 40 kDa])WLMNT [Peptide X-PEG],% activity of native glucagon,glucagon receptor [5],1.9%
same,"EC50 (cAMP, CRE-luciferase)",glucagon receptor [5],2.9 nM
B3,EC50,GLP-1 receptor [6],0.018 nM
HSQGTFTSDK([Trp-Palmitoyl])SKYLDERRAKDFVQWLMNT-NH2 [E16 K20-glucagon-NH2 with K10-W-C16],EC50,GLP-1 receptor [10],0.05 nM
HS[Dab](Ac)GTFTSDYSKYLD[Aib]RRASDFVSWLLDE [HSDab(Ac)…ibRRASDFVSWLLDE (SEQ ID NO: 605)],% activity,glucagon receptor [11],54%
same,EC50,glucagon receptor [11],0.048 nM
HSQGTFTSDYSKYLDEQAAKEFIAWLMNT-NH2 [E16 GLP(17-26)Glu(27-29)-NH2],cAMP induction EC50,GLP-1 receptor [1],14 pM
same,cAMP induction EC50,glucagon receptor [2],0.076 nM
"HSQGTFTSDYSKYLDEQAAKEFIEWLVKG-NH2 [E16 GLP(17-29)-NH2 E24, K28]",cAMP induction EC50,GLP-1 receptor [1],7 pM
same,cAMP induction EC50,glucagon receptor [2],0.23 nM
HSQGTFTSDK([Trp-Palmitoyl])SKYLDERRAKDFVC(PEG 40 kDa)WLMNT-NH2 [E16 K20-glucagon-NH2 with K10-W-C16 and C24-40K PEG (SEQ ID NO: 546)],EC50,GLP-1 receptor [12],0.23 nM
same,EC50,glucagon receptor [8],0.54 nM
same,EC50,GLP-1 receptor [13],0.23 nM
same,EC50,glucagon receptor [14],0.52 nM
HSQGTFTSDYSKYLDEQAAKEFIAWLVKG-NH2 [E16 GLP(17-29)-NH2],cAMP induction EC50,GLP-1 receptor [1],10 pM
same,cAMP induction EC50,glucagon receptor [2],0.46 nM
HS[Dab](Ac)GTFTSDYSKYLD[Aib]RRATDFVTWLLDE [HSDab(Ac)…ibRRATDFVTWLLDE (SEQ ID NO: 606)],% activity,glucagon receptor [11],46%
same,EC50,glucagon receptor [11],0.057 nM
B4,% activity,glucagon receptor [11],113%
same,EC50,glucagon receptor [11],0.023 nM
HSQGTFTSDK(Stearoyl)SKYLDERRAKDFVC(PEG 40 kDa)WLMNT-NH2 [E16 K20-glucagon-NH2 with K10-C18 and C24-40K PEG (SEQ ID NO: 547)],EC50,GLP-1 receptor [12],0.15 nM
same,EC50,glucagon receptor [8],0.84 nM
same,EC50,GLP-1 receptor [13],0.15 nM
same,EC50,glucagon receptor [14],0.84 nM
HSQGTFTSDK([Trp-Stearoyl])SKYLDERRAKDFVC(PEG 40 kDa)WLMNT-NH2 [E16 K20-glucagon-NH2 with K10-W-C18 and C24-40K PEG (SEQ ID NO: 548)],EC50,GLP-1 receptor [12],1.64 nM
same,EC50,glucagon receptor [8],1.29 nM
same,EC50,GLP-1 receptor [13],1.64 nM
same,EC50,glucagon receptor [14],1.3 nM
HSQGTFTSDYSKYLDEQAAKEFIC(PEG 40 kDa)WLMNT-NH2 [Chimera 2 Cys24 (40K)],EC50,GLP-1 receptor [12],0.04 nM
same,EC50,glucagon receptor [8],2.83 nM
